Test results: article PMC11599015 (Viruses, 2024)

Target: recombinant circular RABV N10-RNA complex purified from insect cells (phosphorylated) (rabies virus (RABV), UniProt Q8JXF6 1-450)
Assay: SPR
Settings: both partners purified

recombinant circular RABV N10-RNA complex purified from insect cells (phosphorylated), sequence (Q8JXF6 whole entry, one chain of several): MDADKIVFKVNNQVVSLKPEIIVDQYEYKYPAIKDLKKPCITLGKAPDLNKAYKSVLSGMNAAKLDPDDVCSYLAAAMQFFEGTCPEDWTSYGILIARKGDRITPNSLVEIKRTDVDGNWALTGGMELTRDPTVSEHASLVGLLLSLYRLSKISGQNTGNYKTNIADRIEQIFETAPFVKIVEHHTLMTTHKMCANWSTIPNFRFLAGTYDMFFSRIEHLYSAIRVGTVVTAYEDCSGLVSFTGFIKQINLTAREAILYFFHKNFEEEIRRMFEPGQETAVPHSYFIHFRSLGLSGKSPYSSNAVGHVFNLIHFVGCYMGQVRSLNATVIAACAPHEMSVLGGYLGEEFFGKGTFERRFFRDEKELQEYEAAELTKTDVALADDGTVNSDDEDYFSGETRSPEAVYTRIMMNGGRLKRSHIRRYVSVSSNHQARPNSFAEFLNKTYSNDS

B1: C-terminal domain of RABV phosphoprotein P (PCTD) (domain or fragment)
chain: WSATNEEDDLSVEAEIAHQIAESFSKKYKFPSRSSGIFLYNFEQLKMNLDDIVKEAKNVPGVTRLAHDGSKIPLRCVLGWVALANSKKFQLLVEADKLSKIMQDDLNRYTSC
Kd: 160 ± 20 nM
stoichiometry N: 2 ± 0.2
